Consider one molecule from article PMC7820290.

The target in this series is SARS-CoV-2 nucleocapsid (N), wild type (SARS-CoV-2, UniProt P0DTC9 1-419). Briefly: co-condensation microscopy; 10 uM N, maximal at 5 uM RNA, reentrant. Conditions: protein: recombinant; tags: N-terminal His6 cleaved by TEV; Cys inserted before residue 1 in the dye-labelled fraction; chain copies: 2; label: 6-FAM (fluorescein).

On to AAGCAGCUAAGAGCGAA (ssRNA) [17-mer RNA], for which the binding result was “binds”.
